Measurements: patent US20190105405A1 (MONASH UNIVERSITY, published 2019)

T1: AxxA mutant human ADAM10 (Cys594 and Cys597 to alanine) (human, UniProt O14672 214-748)
T1 construct: Expressed in ADAM10-/- mouse embryonic fibroblasts; tested in detergent lysates by IP; also called AXXA mutant ADAM10; AxxA ADAM10; not shown: turbo-myc tag of the OriGene construct
T1 sequence: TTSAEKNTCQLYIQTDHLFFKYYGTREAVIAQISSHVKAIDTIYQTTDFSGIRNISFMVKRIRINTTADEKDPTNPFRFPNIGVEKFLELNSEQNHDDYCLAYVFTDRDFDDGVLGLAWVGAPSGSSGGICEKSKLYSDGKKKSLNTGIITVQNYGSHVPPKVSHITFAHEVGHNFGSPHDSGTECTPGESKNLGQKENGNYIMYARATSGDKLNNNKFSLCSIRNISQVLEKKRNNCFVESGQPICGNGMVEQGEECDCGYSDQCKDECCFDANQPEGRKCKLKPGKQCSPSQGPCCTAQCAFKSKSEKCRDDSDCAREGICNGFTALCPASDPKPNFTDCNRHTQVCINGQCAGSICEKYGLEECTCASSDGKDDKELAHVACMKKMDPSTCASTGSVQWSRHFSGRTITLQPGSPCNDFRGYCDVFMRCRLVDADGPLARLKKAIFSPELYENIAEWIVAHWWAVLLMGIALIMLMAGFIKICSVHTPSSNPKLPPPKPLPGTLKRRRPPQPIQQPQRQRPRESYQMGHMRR

T2: recombinant huADAM10D+C protein (human, UniProt O14672 455-646)
T2 construct: the whole entry is named here (the bovine construct was 455-646); also called huADAM10D+C domain protein; immobilised recombinant huADAM10D+C
T2 sequence: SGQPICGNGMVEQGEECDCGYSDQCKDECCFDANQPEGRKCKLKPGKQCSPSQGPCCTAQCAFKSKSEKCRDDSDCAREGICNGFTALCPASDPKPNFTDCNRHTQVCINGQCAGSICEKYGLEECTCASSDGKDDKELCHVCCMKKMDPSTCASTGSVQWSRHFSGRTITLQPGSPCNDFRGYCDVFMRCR


How the values were obtained:
PDIA1 (human) = PDIA1 (human) (UniProt P07237); assay: co-IP from LIM1215 lysates equalised for ADAM10, mass spectrometry
[1] = biological target: T1, AxxA mutant human ADAM10 (Cys594 and …); assay: immunoprecipitation from lysates of ADAM10-/- MEFs transfected with AxxA mutant ADAM10, Western blot α-ADAM10
[2] = biological target: T2, recombinant huADAM10D+C protein; assay: SPR, BIAcore 3000, huADAM10D+C immobilised, antibody in solution

PDIA1 (human), sequence (P07237 18-508 limits assumed): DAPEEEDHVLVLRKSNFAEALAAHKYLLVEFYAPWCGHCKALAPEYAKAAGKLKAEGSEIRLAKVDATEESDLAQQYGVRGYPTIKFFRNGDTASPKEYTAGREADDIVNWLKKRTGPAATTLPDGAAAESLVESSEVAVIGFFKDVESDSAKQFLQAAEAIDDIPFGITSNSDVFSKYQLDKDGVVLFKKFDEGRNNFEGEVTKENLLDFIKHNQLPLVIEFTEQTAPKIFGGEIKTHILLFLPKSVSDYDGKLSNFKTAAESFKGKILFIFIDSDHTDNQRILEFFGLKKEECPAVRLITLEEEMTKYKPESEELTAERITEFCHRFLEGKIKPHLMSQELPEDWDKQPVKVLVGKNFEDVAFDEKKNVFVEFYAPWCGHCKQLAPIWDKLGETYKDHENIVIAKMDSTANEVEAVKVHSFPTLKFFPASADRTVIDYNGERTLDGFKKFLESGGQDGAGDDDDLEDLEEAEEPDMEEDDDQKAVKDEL

Row | Molecule | fold more peptides detected in 8C7 IPs than in 4A11 IPs (PDIA1 (human)) [fold] | binding result [1] | Kd [2] [nM] | koff [2] [s⁻¹] | kon [2] [M⁻¹ s⁻¹]
1 | hu8C7, fully humanised version of 8C7 (antibody, human IgG1, kappa, V domains shown, Human IgG1-kappa; humanised variable domains replaced the murine ones in the ch8C7 constructs; The exact V/C junction is not described; also called humanized 8C7) VH: EVQLQQSGAELAKPGSSVKLSCKASGYTFTNYWLQWVKQRPGQGLEWIGAIYPRDGDAKYSQKFKDKASITVNESTSTAYMHLSSLRSEDTAVYYCARANYGLYYAMDRWGQGTTVTVSS VL: DIVLTQSPAFMSVSPGERVSVSCRASQNIGTNIHWYQQRPDQSPRLLIKYASESISGIPSRFSGSGSGTDFYLTINSVESEDIAVYFCQQSNRWPFTFGSGTKLEVKR |  |  | 7.33 | 0.00122 | 166000
2 | ch8C7, human and mouse chimerised version of mAb 8C7 (antibody, V domains shown, The exact V/C junction is not described; also called chimeric 8C7) VH: EVQLQQSGAELARPGSSVKLSCKASGYTFTNYWLQWVKQRTGQGLEWIGAIYPRDGDAKYSQKFKDKASLTVNESSSTAYMHLSALASEDSAVYYCARANYGLYYAMDRWGQGTSVTVSS VL: DIFLTQSPANMSVSPGERVSFSCRASQNIGTNIHWYQQRTNGSPRLLIKYASESISGIPSRFSGSGSGTDFILSINTVESEDIAVYFCQQSNRWPFTFGSGTKLEVIR |  |  | 6.71 | 0.00105 | 157000

The remaining lines, values ahead:

Row | fold more peptides detected in 8C7 IPs than in 4A11 IPs (PDIA1 (human)) [fold] | binding result [1] | Kd [2] [nM] | koff [2] [s⁻¹] | kon [2] [M⁻¹ s⁻¹] | Molecule
3 | > 50 |  |  |  |  | human ADAM10, endogenous full length (from UniProt O14672 214-748) (enzyme)
4 |  | no binding |  |  |  | anti-ADAM10 monoclonal antibody 8C7 (murine) (antibody, V domains shown, Alexa647 dye or coupling to Minileak beads in some experiments; not carried by the letters, Murine whole IgG; Used soluble, coupled to Minileak beads, or Alexa647-labelled depending on the experiment; also called mAb 8C7; mAb8C7) VH: EVQLQQSGAELARPGSSVKLSCKASGYTFTNYWLQWVKQRTGQGLEWIGAIYPRDGDAKYSQKFKDKASLTVNESSSTAYMHLSALASEDSAVYYCARANYGLYYAMDRWGQGTSVTVSS VL: DIFLTQSPANMSVSPGERVSFSCRASQNIGTNIHWYQQRTNGSPRLLIKYASESISGIPSRFSGSGSGTDFILSINTVESEDIAVYFCQQSNRWPFTFGSGTKLEVI
